# The nanobody polyreactivity screen of Harvey et al. (2022)
# Test: yeast display, Sf9 membrane polyspecificity reagent, FACS + sequencing; frameworks hold sequencing errors
# Procedure, shortened: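 In a synthetic yeast display library (Saccharomyces cerevisiae BJ5465), nanobody expression was induced with galactose for 36–48 hours. FACS gates were set low and high (top ~1%) using anti-HA fluorescence for expression and streptavidin fluorescence for binding of the Sf9 membrane reagent. Each polyreactivity label is drawn from the gate of origin.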
row,Sequence,polyreactivity (PSR sort gate)
1,QVQLVESGGGLVQAGGSLRLSCAASGRTFDTYAMGWYRQAPGKERELVAAISTTGRTYYADSVKGRFTISRDNAKNTVYLQMNSLKPEDTALYYCATDPTRSPTSDWGYYYWGQGTQVTVSS,low polyreactivity
2,QVQLVESGGGLVQAGGSLRLSCAASGRTFDTYVMGWYRQAPGKERELVAAISIGGNTNYADSVKGRFTISRDNAKNTVYLQMNSLKPEDTAVYYCAKAWSGISSRDYDLDYWGQGTQVTVSS,low polyreactivity
3,QVQLVESGGGLVQAGGSLRLSCAASGRTFDVNAMGWYRQAPGKERELVAAIRISGGSTYYADSVKGRFTISRDNAKITVYLQMNSLKPEDTAVYYCAAYERRYRNAYDYWGQGTQVTVSS,high polyreactivity
4,QVQLVESGGGLVQAGGSLRLSCAASGRTFDVYAMAWYRQAPGKERELVATISWRGTSTYYADSVKGRFTISRDNAKNTVYLQMNSLKPADTAVYYCAKDPQPDLYGSWGQGTQVTVSS,high polyreactivity
5,QVQLVESGGGLVQAGGSLRLSCAASGRTFDVYAMGWYRPAPGKERELVAAITSGGSTYYADSVKGRYTISRDNAKNTVFLLINSLKPEDTAVYYCATDVDKSLYDYWGQGTQVTVSS,low polyreactivity
6,QVQLVESGGGLVQAGGSLRLSCAASGRTFDVYTMGWYRHAAGKERELVAAITARGARTYYADSVKGRFTISRDNAKNTVYLQMNSLKPEDTAVYYCAAKSYRHSLYDYWGQGTQVTVSS,high polyreactivity
7,QVQLVESGGGLVQAGGSLRLSCAASGRTFDWYAMGWYRPAPGKERELVAAISRSGGSTYYADSVKGRFTISLDNAKNTVYLQMNSLKPEDTAVYYCAKRYAPDSRYYYWGQGTQVTVSS,high polyreactivity
8,QVQLVESGGGLVQAGGSLRLSCAASGRTFDWYVMGWYRQAPGKERELVASIRGTGSTYYADSVKGRFTISRDNAKNTVYLQMNSLKPEDTAVYYCAARPGYLYSKYNYWGQGTQVTVSS,high polyreactivity
9,QVQLVESGGGLVQAGGSLRLSCAASGRTFDYNAMGWYRPAPGKERELVAAISRSGGSTYYADSVKGRFTISRDNAKNTVYLQMNRLKPEDTAVYYCAADNYYLFALYEYGYWGQGTQVTVSS,high polyreactivity
10,QVQLVESGGGLVQAGGSLRLSCAASGRTFDYNAMGWYRQAPGKEREMVAAISSSGGSTYYADSVKGRFTISRDNAKNTVYLQMNSLKPEDTAVYYCATLYPRISIYYYWGQGTQVTVSS,high polyreactivity
11,QVQLVESGGGLVQAGGSLRLSCAASGRTFDYYAMGWFRQAPGKERELVAAISSSGGRTYYADSVKGRFTISRDNAKNTVYLQMNSLKPEDTAVYYCNAVVSRNYEYWGQGTQVTVSS,high polyreactivity
12,QVQLVESGGGLVQAGGSLRLSCAASGRTFEGNAMGWSRQAPGKERELVAAISGSGGRTYYADSVKGRFTISRDNAKNTVYLQMNSLKPEDTAVYYATLYSVYNPWRFNYWGQGTQVTVSS,high polyreactivity
13,QVQLVESGGGLVQAGGSLRLSCAASGRTFEGNAMGWYRQSPGKERELVAAIRWRGGRTYYADSVKGRFTISRDNAKNTVYLQLNSLNPEDTAVYYCAAAGLPPPDNDYWGQGTQVTVSS,low polyreactivity
14,QVQLVESGGGLVQAGGSLRLSCAASGRTFEIYAIGWYSKAPGKERELVAAISSGGSTYYADSVKGRFTISRDNAKNTVYLQMNSLKPEDTAVYYCAVRWYDQVSRRGIGYYWGQGTQVTVSS,low polyreactivity
15,QVQLVESGGGLVQAGGSLRLSCAASGRTFEKYVMGWYRQAPGKERELVASISKRGGSTYYADSVKGRFTISRDNAKNTVYLQMNSLKPEDTAVYYCNKDSRASPYGYWGQGTQVTVSS,high polyreactivity
16,QVQLVESGGGLVQAGGSLRLSCAASGRTFEPNAMGWYRQAPGKEREFVAAISWDGGDTYYADSVKGRFTISRDNAKNTVYLQMNSLKPEDTAVYYCAKSTLYSVEYDYWGQGTQVTVSS,low polyreactivity
17,QVQLVESGGGLVQAGGSLRLSCAASGRTFEQYAMGWSRQAPGKERELVAAISGSGGSTFYADSVKGRFTISRDNAKNTVYLQMNSLKPEDTAVYYCNAPGDGYLYDHTYDYWGQGTQVTVSS,low polyreactivity
18,QVQLVESGGGLVQAGGSLRLSCAASGRTFERYALGWYRQAPGKERELVAAIDFSGGSTSYADSVKGRFTISRDNAKNTVYLQMNSLKPEDTAVYYCAARETAHGGKEDDYWGQGTQVTVSS,low polyreactivity
19,QVQLVESGGGLVQAGGSLRLSCAASGRTFERYAMGWYRQAPGKERELVATITRRGGSTYYADSVKGRFTISRDNAKNTVYLQMNSLKPEDTAVYYCNADNQAYRIYARGYWGQGTQVTVSS,high polyreactivity
20,QVQLVESGGGLVQAGGSLRLSCAASGRTFESNAMGWYRQAPGKERELVAAISYGGGTTHYADSVKGRFTISRDNAKNTVYLQMNSLKPEDTAVYYCAADPEHQWESVTIGEYDYWGQGTQVTVSS,low polyreactivity
21,QVQLVESGGGLVQAGGSLRLSCAASGRTFESNAMGWYRQAPGKERELVAGITSGGITNYADSVKGRFTISRDNAKNTVYLQMISLKPEDTAVYYCEFYYWGQGTQVTVSS,low polyreactivity
22,QVQLVESGGGLVQAGGSLRLSCAASGRTFESNAMGWYRQAPGKERELVAGITSGGITNYADSVKGRFTISRDNAKNTVYLQMNSLKPEDTAVYYCEFYYWGQGTQVTVSS,low polyreactivity

row,Sequence,polyreactivity (PSR sort gate)
1,QVQLVESGGGLVQAGGSLRLSCAASGRTFESNAMGWYRQAPGKERELVASITDGGSTNYADSVKGRFTISRDNAKNTVYLQMNSLKPEDSAVYYCNVTKRGSLWSVPDQTYDYWGQGTQVTVSS,low polyreactivity
2,QVQLVESGGGLVQAGGSLRLSCAASGRTFESYAMGWYRQAPGTERELVAAITWSGGDTYYADSVKGRFTISRDNAKNTVYLQMNSLKPEETAVYYCAKEQGLYSVSPYDYWGQGTQVTVSS,low polyreactivity
3,QVQLVESGGGLVQAGGSLRLSCAASGRTFEYYAMGWYRQAPGKERDLVAAISTSGGSTYYADSVKGRFTISRDNAKNTVYLQMNSLKPEDTAVYYCNKVQSTANDYWGQGTQVTVSS,low polyreactivity
4,QVQLVESGGGLVQAGGSLRLSCAASGRTFFGNAMGWYRQAPGKERELVAVISQGGGSTYYADSVKGRFTISRDNAKNTVYLQMNSLKPEDTAVYYCAKRYPHVGSGQLGGTYNYWGQGTQVTVSS,low polyreactivity
5,QVQLVESGGGLVQAGGSLRLSCAASGRTFFGYAMGWYIQAPGKERELVAAITWNGGRTYYADSVRGRFTISRDNAKNTVYLQMNSLKPEDTAVYYCAARVGDGVRRYNYWGQGTQVTVSS,high polyreactivity
6,QVQLVESGGGLVQAGGSLRLSCAASGRTFFGYAMGWYRQAPGKERELVAAISGGGRTNYADSVKGRFTISRDNAKNTVYLQMNSLKPEDTAVYYCAARLVKYFRPYDYWGQGTQVTVSS,high polyreactivity
7,QVQLVESGGGLVQAGGSLRLSCAASGRTFFGYAMGWYRQAPGKERELVAAISSGGSTYYADSVKGRFTISRDNAKNTVYLQMYSLKPEDTAVYYCATAFYYYTSGTTLLFRYDYWGQGTQVTVSS,low polyreactivity
8,QVQLVESGGGLVQAGGSLRLSCAASGRTFFKIAMGWYRQAPGKERELVASISSRSGTTYYADSVKGRFTISRDNAKNTVYLQMNSLKPEDTAVYYCAASRNRYSYGYWGQGTQVTVSS,high polyreactivity
9,QVQLVESGGGLVQAGGSLRLSCAASGRTFFKNAMGWYRQAPGKERELVASISSRSGTTYYADSVKGRFTISRDNAKNTVYLQMNSLKPEDTAVYYCAADIYWWRGSTHGMDYWGQGTQVTVSS,high polyreactivity
10,QVQLVESGGGLVQAGGSLRLSCAASGRTFFKYAMGWYRQAPGKERELVAAITGRGGSTYADSVKGRFTISRDNAKNTVYLQMNSLKPEDTAVYYCAKVYQRGAQYYYYKYDYWGQGTQVTVSS,high polyreactivity
11,QVQLVESGGGLVQAGGSLRLSCAASGRTFFKYAMGWYRQEPGKERELVASISRTGGGSTYYADSVKGRFTISRDNAKNTVYLQMNSLQPEDTAVYYCNKYTYRGRTGEFNYWGQGTQVNVSS,high polyreactivity
12,QVQLVESGGGLVQAGGSLRLSCAASGRTFFLYAMGWYRQAPGKEREFVATISYGGGSTYYADSVKGRFTISRDNAKNTVYLQMNSLKPDDTAVYYCNALNTSQYAEGTSDYDGNMGYWGQGTQVTVSS,low polyreactivity
13,QVQLVESGGGLVQAGGSLRLSCAASGRTFFLYTIGWYRQAPGKEREFVAAITTIGGSTYYADSVKGRFTISRDNAKNTVSLQMHSLKPEDTAVYYCNARVGPELHDYWGQGTQVTVSS,low polyreactivity
14,QVQLVESGGGLVQAGGSLRLSCAASGRTFFNYAMGWYRQAPGKERELVAAISFSDGSTYYADSVKGRFTISRDNAKNTVYLQMNSLKPEDTADYYCAAQPGRRAGRSGFDYWGQGTQVTVSS,high polyreactivity
15,QVQLVESGGGLVQAGGSLRLSCAASGRTFFPNAMGWYRQAPGKERELVAAISSGGGGTYYADSVKGRFTISRDNAKNTVYLQMISLKPEDTAVYYCAARNSKVEEEGNYWGQGTQVTVSS,low polyreactivity
16,QVQLVESGGGLVQAGGSLRLSCAASGRTFFPYAMGWYRQAPGKEREFVAAITKTDDSTYYADSVKGRFTISRDNAKNTVYLQMNSLKPEDTAVYYCAADTSRSVSVFIVWYWLGYWGQGTQVTVSS,low polyreactivity
17,QVQLVESGGGLVQAGGSLRLSCAASGRTFFPYAMGWYRQAPGKEREFVAAITKTDDTTYYADSVKGRFTISRDNAKNTVYLQMNSLKPEDTAVYYCNAGDTQIRFYYWGQGTQVNVSS,low polyreactivity
18,QVQLVESGGGLVQAGGSLRLSCAASGRTFFQYAMGWYRQAPGKERELVAAIRWSDSTYYADSVKGRFTISRDNAKNTVYLQMNSLKPEDTAVYYCAAPRVSQYSTKKYDYWGQGTQVTVSS,low polyreactivity
19,QVQLVESGGGLVQAGGSLRLSCAASGRTFFQYAMGWYRQAPGKERELVATIRSGGSTYYADSVKGRFTISRDNAKNTVYLQMNSLKPEDTAVYYCATRYTRFRHFDYWGQGTQVTVSS,low polyreactivity
20,QVQLVESGGGLVQAGGSLRLSCAASGRTFFRNTMGWYRQAPGKERELVATISSSGGSTYYADSVKGRFTISRDNAKNTVYLQMNSLKPEDTAVYYCAAAPSKWYYGYGYWGQGTQVTVSS,high polyreactivity
21,QVQLVESGGGLVQAGGSLRLSCAASGRTFFRYAMGWYRQAPGKERELVAVITRGGSTYYADSVKGRFTISRDNAKNTVYLQMNSLKPEDTAVYYCNADGRVQRKYDYWGQGTQVTVSS,high polyreactivity
